Specific Activity (IU/mg) in the Cell Proliferation Assay data for two substances are collected here from patent US20060134736A1.

The target in the assay is full-length human growth hormone receptor (stably transfected in BaF3 cells, cell line Baf-B03 B2B2) (human) (UniProt P10912). As to the kind of experiment: cell-based or functional assay.
Chain of UniProt P10912 (P10912 19-638): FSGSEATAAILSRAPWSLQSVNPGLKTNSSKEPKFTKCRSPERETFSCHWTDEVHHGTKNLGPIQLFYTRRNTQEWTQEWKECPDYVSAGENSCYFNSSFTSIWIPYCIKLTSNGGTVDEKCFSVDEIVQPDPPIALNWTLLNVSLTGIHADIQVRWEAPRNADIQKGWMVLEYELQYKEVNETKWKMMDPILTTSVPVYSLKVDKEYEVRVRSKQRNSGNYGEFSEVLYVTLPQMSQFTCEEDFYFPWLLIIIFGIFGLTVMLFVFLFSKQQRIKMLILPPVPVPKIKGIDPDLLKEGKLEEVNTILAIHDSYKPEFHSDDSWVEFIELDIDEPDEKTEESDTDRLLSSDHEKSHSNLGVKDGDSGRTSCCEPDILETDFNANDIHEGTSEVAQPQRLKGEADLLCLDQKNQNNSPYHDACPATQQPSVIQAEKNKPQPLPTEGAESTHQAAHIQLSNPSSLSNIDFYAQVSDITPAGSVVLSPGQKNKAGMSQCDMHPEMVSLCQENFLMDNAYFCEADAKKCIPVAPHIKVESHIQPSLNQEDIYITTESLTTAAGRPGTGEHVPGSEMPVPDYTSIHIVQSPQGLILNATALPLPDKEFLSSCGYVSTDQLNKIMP

In turn, “Mono-PEG-hGH (one PEG attached to one hGH molecule, Lot No BPM#04-003) (from UniProt P01241 27-217) (ligand)” registered a Specific Activity (IU/mg) in the Cell Proliferation Assay of 0.46 IU/mg.

For “Di-PEG-hGH (two PEGs attached to one hGH molecule, Lot No BPM#04-004) (from UniProt P01241 27-217) (ligand)”, the Specific Activity (IU/mg) in the Cell Proliferation Assay was 0.25 IU/mg.
